Source: patent US20260139001A1 (Harvard, published 2026)

B1: VHH72 wt (VHH)
VHH: QVQLQESGGGLVQAGGSLRLSCAASGRTFSEYAMGWFRQAPGKEREFVATISWSGGSTYYTDSVKGRFTISRDNAKNTVYLQMNSLKPDDTAVYYCAAAGLGTVVSEWDYDYDYWGQGTQVTVSS
B2: VHH72 G56MDCcC (VHH)
VHH: QVQLQESGGGLVQAGGSLRLSCAASGRTFSEYAMGWFRQAPGKEREFVATISWSGCSTYYTDSVKGRFTISRDNAKNTVYLQMNSLKPDDTAVYYCAAAGLGTVVSEWDYDYDYWGQGTQVTVSS
B3: VHH72 NoK wt (VHH)
VHH: QVQLQESGGGLVQAGGSLRLSCAASGRTFSEYAMGWFRQAPGREREFVATISWSGGSTYYTDSVRGRFTISRDNARNTVYLQMNSLRPDDTAVYYCAAAGLGTVVSEWDYDYDYWGQGTQVTVSS
B4: LCB3-NS (LCB3 H19aNBDC) (designed binder)
chain: MNDDELHMLMTDLVYEALCFAKDEEIKKRVFQLFELADKAYKNNDRQKLEKVVEELKELLERLLS

Experiments:
[1] = biological target: T1, SARS-CoV-2 Spike RBD, Wuhan (SARS-CoV-2, UniProt P0DTC2 319-541)
[2] = biological target: T1, SARS-CoV-2 Spike RBD, Wuhan; remark: listed apart in the source

| Binder | Kd [1] | EC50 [2] |
| --- | --- | --- |
| B1 | 45 nM | – |
| B2 | – | 1100 nM |
| B3 | 75 nM | – |
| B4 | – | 6400 nM |
